The text below walks through data of paper PMC5376635, “NDR1-Dependent Regulation of Kindlin-3 Controls High-Affinity LFA-1 Binding and Immune Synapse Organization” (Molecular and Cellular Biology, 2017).

The target in assay [1] is T1, LFA-1 (mouse (endogenous in OT-II T cells), UniProt P24063 24-1162; P11835 24-771).
T1 construct: integrin αL subunit of LFA-1, mouse; integrin β2 subunit of LFA-1, mouse; also called αL/β2 integrin; source: endogenous, on naive OT-II T cells and OT-II T cell blasts (mouse)
T1 sequence (P24063 24-1162, chain 1 of 2): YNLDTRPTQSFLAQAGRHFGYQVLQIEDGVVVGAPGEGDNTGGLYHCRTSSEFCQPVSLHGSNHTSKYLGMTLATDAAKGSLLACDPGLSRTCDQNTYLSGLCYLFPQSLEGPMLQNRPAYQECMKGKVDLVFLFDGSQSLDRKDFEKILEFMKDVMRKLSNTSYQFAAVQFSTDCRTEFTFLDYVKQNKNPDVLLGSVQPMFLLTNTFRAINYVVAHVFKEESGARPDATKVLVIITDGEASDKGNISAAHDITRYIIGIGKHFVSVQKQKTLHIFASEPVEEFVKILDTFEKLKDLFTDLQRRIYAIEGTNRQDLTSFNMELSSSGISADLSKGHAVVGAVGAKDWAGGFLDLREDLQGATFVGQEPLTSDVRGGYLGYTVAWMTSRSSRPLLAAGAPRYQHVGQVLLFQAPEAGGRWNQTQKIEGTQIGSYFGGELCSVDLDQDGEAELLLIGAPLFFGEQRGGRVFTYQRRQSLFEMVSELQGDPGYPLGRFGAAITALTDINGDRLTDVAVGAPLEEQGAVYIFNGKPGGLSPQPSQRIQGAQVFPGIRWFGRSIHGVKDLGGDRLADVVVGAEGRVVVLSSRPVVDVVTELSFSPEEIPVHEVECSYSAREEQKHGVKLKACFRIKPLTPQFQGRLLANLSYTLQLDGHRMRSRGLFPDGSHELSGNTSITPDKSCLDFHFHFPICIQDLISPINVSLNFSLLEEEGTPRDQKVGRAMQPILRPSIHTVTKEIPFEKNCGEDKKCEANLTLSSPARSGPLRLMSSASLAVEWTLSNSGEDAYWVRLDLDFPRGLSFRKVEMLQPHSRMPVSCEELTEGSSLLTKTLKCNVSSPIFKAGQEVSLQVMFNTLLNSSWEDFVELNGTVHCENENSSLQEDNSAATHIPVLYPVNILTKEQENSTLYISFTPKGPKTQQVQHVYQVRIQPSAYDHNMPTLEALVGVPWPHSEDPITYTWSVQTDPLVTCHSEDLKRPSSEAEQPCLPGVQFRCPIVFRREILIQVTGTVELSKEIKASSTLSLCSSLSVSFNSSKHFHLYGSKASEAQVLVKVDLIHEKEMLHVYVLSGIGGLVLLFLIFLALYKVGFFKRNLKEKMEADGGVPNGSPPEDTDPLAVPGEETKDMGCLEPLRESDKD
T1 sequence (P11835 24-771, chain 2 of 2): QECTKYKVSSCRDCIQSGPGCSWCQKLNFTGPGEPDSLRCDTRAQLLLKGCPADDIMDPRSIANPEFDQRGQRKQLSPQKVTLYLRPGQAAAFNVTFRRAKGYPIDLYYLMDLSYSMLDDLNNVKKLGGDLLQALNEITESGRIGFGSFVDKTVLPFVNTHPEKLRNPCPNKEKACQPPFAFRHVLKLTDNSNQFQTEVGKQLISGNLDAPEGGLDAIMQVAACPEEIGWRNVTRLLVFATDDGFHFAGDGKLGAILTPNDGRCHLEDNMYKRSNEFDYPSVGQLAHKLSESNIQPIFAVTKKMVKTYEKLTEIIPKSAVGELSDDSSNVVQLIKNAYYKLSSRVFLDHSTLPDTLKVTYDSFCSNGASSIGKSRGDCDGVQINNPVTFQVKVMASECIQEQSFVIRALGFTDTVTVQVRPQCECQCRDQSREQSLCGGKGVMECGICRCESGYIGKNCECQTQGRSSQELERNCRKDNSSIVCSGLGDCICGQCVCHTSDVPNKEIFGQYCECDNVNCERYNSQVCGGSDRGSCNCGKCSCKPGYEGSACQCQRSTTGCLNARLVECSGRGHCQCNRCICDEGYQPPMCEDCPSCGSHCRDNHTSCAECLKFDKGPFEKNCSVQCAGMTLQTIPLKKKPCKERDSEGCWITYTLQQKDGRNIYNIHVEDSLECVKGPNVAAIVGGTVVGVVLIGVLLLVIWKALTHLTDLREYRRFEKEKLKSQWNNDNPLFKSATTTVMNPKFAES
In words: single-molecule tracking by TIRF microscopy on supported lipid bilayers; ATTO-647N-labeled ICAM-1-GPI (300 molecules/μm^2) and I-A^b-OVA peptide (200 molecules/μm^2) in supported planar lipid bilayers; naive OT-II T cells or OT-II T cell blasts (also Rap1b KO, Mst1/2 DKO, kindlin-3 or NDR1 knock-down cells) on top; 30 frames/s for 200 s; arrests of 0.5 to 200 s counted as binding; koff from a single exponential fit …. The note with it: one partner purified.

Assay [2] concerns the target T1, LFA-1. The experiment in a line: single-molecule tracking by TIRF microscopy on supported lipid bilayers; as a1 but with 1 mM Mn^2+ and in the absence of pMHC, similar ICAM-1 density. The note with it: one partner purified.

B1: Mouse ICAM-1-GPI (ligand)
chain: QVSIHPREAFLPQGGSVQVNCSSSCKEDLSLGLETQWLKDELESGPNWKLFELSEIGEDSSPLCFENCGTVQSSASATITVYSFPESVELRPLPAWQQVGKDLTLRCHVDGGAPRTQLSAVLLRGEEILSRQPVGGHPKDPKEITFTVLASRGDHGANFSCRTELDLRPQGLALFSNVSEARSLRTFDLPATIPKLDTPDLLEVGTQQKLFCSLEGLFPASEARIYLELGGQMPTQESTNSSDSVSATALVEVTEEFDRTLPLRCVLELADQILETQRTLTVYNFSAPVLTLSQLEVSEGSQVTVKCEAHSGSKVVLLSGVEPRPPTPQVQFTLNASSEDHKRSFFCSAALEVAGKFLFKNQTLELHVLYGPRLDETDCLGNWTWQEGSQQTLKCQAWGNPSPKMTCRRKADGALLPIGVVKSVKQEMNGTYVCHAFSSHGNVTRNVYLTVLYHSQNN
modifications: GPI anchor; labeled with ATTO-647N-NHS-ester
Broadly, the koff is the rate constant with which the complex falls apart. High values mean fast dissociation, low ones slow dissociation. B1 registered a koff with LFA-1 [1] of 0.032 s⁻¹. Further, in the assay with LFA-1 [2], the “fold increase of binding durations longer than 10 s with Mn^2+” value was found to be 2 fold.
